Measurements as given in US20250289893A1 (OXFORD UNIVERSITY INNOVATION, published 2025).

Key:
[1] = target: T1, human CD1a expressed on cells (human, UniProt P06126 17-327; P61769 21-119); test: flow cytometry of ear skin cells of CD1a transgenic mice given antibody 116 100 µg i.p. on days 0, 2, 4 (CD1a : OX116), stained with HI149 on day 5; the cloud lies on the lower edge of the gate; no percent sign printed
T1 construct: also called HEK - CD1a; C1R - CD1a

[2] = target: T1, human CD1a expressed on cells; test: flow cytometry of ear skin cells of CD1a transgenic mice given isotype control (CD1a : iso), stained with HI149; gated population not named on the sheet; no percent sign printed
[3] = target: T1, human CD1a expressed on cells; test: flow cytometry of ear skin cells of CD1a transgenic mice given isotype control (CD1a : iso), stained with SK9; gated population not named on the sheet; no percent sign printed
[4] = target: T1, human CD1a expressed on cells; test: flow cytometry of ear skin cells of CD1a transgenic mice given antibody 116 100 µg i.p. on days 0, 2, 4 (CD1a : OX116), stained with SK9 on day 5; no percent sign printed
[5] = target: T2, human CD1a protein (pool B) (human, UniProt P06126 18-295, limits assumed); test: ELISA, 1 µg/ml antibody
T2 construct: Recombinant protein of the ELISA (coated) and the Biacore T200 titration; whole entry named; also called human CD1a pool B; full length CD1a

[6] = target: chimeric CD1a pool B protein [human CD1a lipid binding domain, mouse CD1d Ig domain] (human; mouse) (UniProt P06126); test: ELISA, 0.1 µg/ml antibody
[7] = target: Chinese variant CD1a protein (human) (UniProt P06126); test: ELISA, 0.1 µg/ml antibody
[8] = target: T3, Cynomolgus monkey CD1a protein (Cynomolgus monkey); test: ELISA, 0.01 µg/ml antibody
T3 chain: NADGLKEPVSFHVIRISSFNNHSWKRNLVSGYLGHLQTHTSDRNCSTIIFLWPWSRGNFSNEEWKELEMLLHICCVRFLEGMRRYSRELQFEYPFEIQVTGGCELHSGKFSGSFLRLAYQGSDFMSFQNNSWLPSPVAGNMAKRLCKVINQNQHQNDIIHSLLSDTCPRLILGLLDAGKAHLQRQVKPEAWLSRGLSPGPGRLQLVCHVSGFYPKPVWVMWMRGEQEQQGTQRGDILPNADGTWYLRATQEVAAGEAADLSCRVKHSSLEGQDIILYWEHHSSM

[9] = target: T2, human CD1a protein (pool B); test: ELISA, 100 µg/ml antibody
[10] = target: T3, Cynomolgus monkey CD1a protein; test: ELISA, 1 µg/ml antibody
[11] = target: chimeric CD1a pool B protein [human CD1a lipid binding domain, mouse CD1d Ig domain] (human; mouse) (UniProt P06126); test: ELISA, 10 µg/ml antibody
[12] = target: Chinese variant CD1a protein (human) (UniProt P06126); test: ELISA, 10 µg/ml antibody
[13] = target: chimeric CD1a pool B protein [human CD1a lipid binding domain, mouse CD1d Ig domain] (human; mouse) (UniProt P06126); test: ELISA, 0.0316 µg/ml antibody
[14] = target: T3, Cynomolgus monkey CD1a protein; test: ELISA, 0.1 µg/ml antibody
[15] = target: chimeric CD1a pool B protein [human CD1a lipid binding domain, mouse CD1d Ig domain] (human; mouse) (UniProt P06126); test: ELISA, 1 µg/ml antibody
[16] = target: Chinese variant CD1a protein (human) (UniProt P06126); test: ELISA, 1 µg/ml antibody
[17] = target: T2, human CD1a protein (pool B); test: ELISA, 10 µg/ml antibody
[18] = target: T2, human CD1a protein (pool B); test: ELISA, 0.316 µg/ml antibody
[19] = target: T2, human CD1a protein (pool B); test: ELISA, 31.6 µg/ml antibody
[20] = target: chimeric CD1a pool B protein [human CD1a lipid binding domain, mouse CD1d Ig domain] (human; mouse) (UniProt P06126); test: ELISA, 31.6 µg/ml antibody
[21] = target: T3, Cynomolgus monkey CD1a protein; test: ELISA, 10 µg/ml antibody
[22] = target: chimeric CD1a pool B protein [human CD1a lipid binding domain, mouse CD1d Ig domain] (human; mouse) (UniProt P06126); test: ELISA, 0.316 µg/ml antibody
[23] = target: chimeric CD1a pool B protein [human CD1a lipid binding domain, mouse CD1d Ig domain] (human; mouse) (UniProt P06126); test: ELISA, 100 µg/ml antibody
[24] = target: Chinese variant CD1a protein (human) (UniProt P06126); test: ELISA, 0.01 µg/ml antibody
[25] = target: T2, human CD1a protein (pool B); test: ELISA, 0.1 µg/ml antibody
[26] = target: T2, human CD1a protein (pool B); test: ELISA, 3.16 µg/ml antibody
[27] = target: chimeric CD1a pool B protein [human CD1a lipid binding domain, mouse CD1d Ig domain] (human; mouse) (UniProt P06126); test: ELISA, 3.16 µg/ml antibody
[28] = target: T2, human CD1a protein (pool B); test: ELISA, 0.0316 µg/ml antibody
[29] = target: T2, human CD1a protein (pool B); test: Biacore, column KD1 of the heterogeneous ligand model; no unit on the sheet or in the legend, M taken from Table 10 of the same Biacore method
[30] = target: T2, human CD1a protein (pool B); test: Biacore, column KD2 of the heterogeneous ligand model; no unit on the sheet or in the legend, M taken from Table 10 of the same Biacore method
[31] = target: chimeric CD1a pool B protein [human CD1a lipid binding domain, mouse CD1d Ig domain] (human; mouse) (UniProt P06126); test: ELISA on chimeric CD1a (human alpha 1 and alpha 2 domains, murine CD1d alpha 3 domain), size exclusion pool B; antibody concentration not given
[32] = target: Chinese variant CD1a protein (human) (UniProt P06126); test: ELISA on coated minor CD1A variant protein; antibody concentration not given
[33] = target: T4, Human CD1a/β2m heterodimer (soluble, de-glycosylated) (human, UniProt P61769 21-119); test: SPR, OX16-scFv immobilised on streptavidin chip, CD1a-endo (endogenous lipids) injected up to 1000 nM; 1:1 specific binding fit of response against concentration; row printed as Kd, unit nM from the legend paragraph 90
T4 construct: Expressed in HEK293S cells with fos-jun zippers, BirA tag and His-tag, which were cleaved off with thrombin; deglycosylated with EndoH; Carries endogenous lipids or a loaded lipid (named under assay); also called CD1a-endo; CD1a-sphingomyelin

[34] = target: T4, Human CD1a/β2m heterodimer (soluble, …); test: SPR, OX16-scFv immobilised, CD1a-GD3 (GD3 ganglioside) injected up to 1000 nM; 1:1 specific binding fit; row printed as Kd, unit nM from the legend paragraph 90
[35] = target: T4, Human CD1a/β2m heterodimer (soluble, …); test: SPR, OX16-scFv immobilised, CD1a-LPC (lysophosphatidylcholine) injected up to 1000 nM; 1:1 specific binding fit; row printed as Kd, unit nM from the legend paragraph 90
[36] = target: T4, Human CD1a/β2m heterodimer (soluble, …); test: SPR, OX16-scFv immobilised, CD1a-SM24:1 (sphingomyelin) injected up to 1000 nM; 1:1 specific binding fit; row printed as Kd, unit nM from the legend paragraph 90
[37] = target: T4, Human CD1a/β2m heterodimer (soluble, …); test: SPR, OX116-scFv immobilised, CD1a-GD3 (GD3 ganglioside) injected up to 1000 nM; 1:1 specific binding fit; row printed as Kd, unit nM from the legend paragraph 90
[38] = target: T4, Human CD1a/β2m heterodimer (soluble, …); test: SPR, OX116-scFv immobilised, CD1a-SM24:1 (sphingomyelin) injected up to 1000 nM; 1:1 specific binding fit; row printed as Kd, unit nM from the legend paragraph 90
[39] = target: T4, Human CD1a/β2m heterodimer (soluble, …); test: SPR, OX116-scFv immobilised on streptavidin chip, CD1a-endo (endogenous lipids) injected up to 1000 nM; 1:1 specific binding fit of response against concentration; row printed as Kd, unit nM from the legend paragraph 90
[40] = target: T4, Human CD1a/β2m heterodimer (soluble, …); test: SPR, OX116-scFv immobilised, CD1a-LPC (lysophosphatidylcholine) injected up to 1000 nM; 1:1 specific binding fit; row printed as Kd, unit nM from the legend paragraph 90

Chain of chimeric CD1a pool B protein [human CD1a lipid binding domain, mouse CD1d Ig domain] (human; mouse) (P06126 other isoform, or with tags, fused parts or gaps mutant limits assumed): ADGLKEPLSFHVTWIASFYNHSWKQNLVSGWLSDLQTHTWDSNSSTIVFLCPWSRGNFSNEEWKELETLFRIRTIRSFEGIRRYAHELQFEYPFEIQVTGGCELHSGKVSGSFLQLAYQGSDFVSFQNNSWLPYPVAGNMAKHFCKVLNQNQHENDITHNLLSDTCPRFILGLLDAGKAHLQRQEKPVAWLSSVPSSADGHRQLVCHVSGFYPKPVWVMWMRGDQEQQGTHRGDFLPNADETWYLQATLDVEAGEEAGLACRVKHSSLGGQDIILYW
Chain of Chinese variant CD1a protein (human) (P06126 18-295, stated change not applied): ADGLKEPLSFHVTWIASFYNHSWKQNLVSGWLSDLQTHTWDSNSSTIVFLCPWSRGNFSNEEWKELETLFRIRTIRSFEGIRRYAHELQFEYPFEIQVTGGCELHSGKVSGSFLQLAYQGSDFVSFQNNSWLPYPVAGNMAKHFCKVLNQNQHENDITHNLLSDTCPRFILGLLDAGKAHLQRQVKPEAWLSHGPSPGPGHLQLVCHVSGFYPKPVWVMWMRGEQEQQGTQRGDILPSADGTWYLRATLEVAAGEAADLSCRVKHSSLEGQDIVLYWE
T2 sequence (P06126 18-295 limits assumed): as the sequence (P06126 18-295, stated change not applied) above

HI149 (antibody)
CD1a+ (gate frequency) [1]: 46.6% | CD1a+ (gate frequency) [2]: 82.2%

SK9 (antibody)
CD1a+ (gate frequency) [3]: 84.9% | CD1a+ (gate frequency) [4]: 87.4%

control rabbit IgG antibody
Optical Density (OD) [5]: 0.07 OD | Optical Density (OD) [6]: 0.08 OD | Optical Density (OD) [7]: 0.08 OD | Optical Density (OD) [8]: 0.06 OD | Optical Density (OD) [9]: 0.07 OD | Optical Density (OD) [10]: 0.07 OD | Optical Density (OD) [11]: 0.08 OD | Optical Density (OD) [12]: 0.14 OD | Optical Density (OD) [13]: 0.09 OD | Optical Density (OD) [14]: 0.07 OD | Optical Density (OD) [15]: 0.09 OD | Optical Density (OD) [16]: 0.08 OD | Optical Density (OD) [17]: 0.07 OD | Optical Density (OD) [18]: 0.07 OD | Optical Density (OD) [19]: 0.06 OD | Optical Density (OD) [20]: 0.08 OD | Optical Density (OD) [21]: 0.09 OD | Optical Density (OD) [22]: 0.09 OD | Optical Density (OD) [23]: 0.08 OD | Optical Density (OD) [24]: 0.08 OD | Optical Density (OD) [25]: 0.06 OD | Optical Density (OD) [26]: 0.06 OD | Optical Density (OD) [27]: 0.1 OD | Optical Density (OD) [28]: 0.06 OD

B1: OX25 (antibody, V domains shown)
VH: QVQLQQSGPGLVAPSQSLFITCTVSGFSLTTYEINWVRQPPGKGLEWLGVIWTGGSTNYNSALISRLSISKDNSKSLVFLKMNSLQTDDTAIYYCVRTLPYYYAMDYWGQGTSVTVSS
VL: EIVLTQSPALMAASPGEKVTITCSVSSSISSSNLHWYQQKSGTSPKPWIYGTSNLASGVPVRFSGSGSGTSYSLTISSMEAEDAATYYCQQWSSYPPTFGSGTKLEIK
notes: also called antibody 25; Ab 25
Kd [29]: 15 nM | Kd [30]: 2.1 nM | optical density (ELISA) [31]: 0.11 | optical density (ELISA) [32]: 0.736

B2: OX16 scFv (scFv)
scFv: DAEVQLVESGGGLVKPGGSLKLSCAASGFTFSNYAMSWVRQTPEKRLEWVAAINSNGGSAYYPDTVKDRFTISRDNAKNTLYLQMSSLRSEDTALYYCARRFYYDYGWFAYWGQGTLVTVSSGGGGSGGGGSGGGGSDIVLTQSPASLSASVGETVTITCRASENIDSYLAWYQQKQGKSPQLLVYAATLLADGVPSRFSGSGSGTQYSLKINSLQSEDVARYYCQHYYSSPWTFGGGTKLEIKSGLEVLFQGPGSGLNDIFEAQKIEWHEHHHHHH
notes: SPR: biotinylated on the C-terminal tag and coupled to streptavidin; Crystals: BirA and His-tag cleaved off with 3C protease; also called 16 ScFv full; single chain variable construct of OX16
Kd [33]: 476 nM | Kd [34]: 1270 nM | Kd [35]: 1010 nM | Kd [36]: 860 nM

B3: OX116 scFv (scFv)
scFv: DAQSVEESGGRLVTPGTPLTLTCTVSGFSLSNYAMSWVRQAPGKGLEWIGIIYTTGFTYYASWVKGRFTISKTSTTVDLKITSPTTEDTATYFCARGLATYVSPPTRLDLWGQGTLVTVSSGGGGSGGGGSGGGGSAQVLTQTPSPVSAAVGGTVTINCQASQSIYNSKNLAWYQQKPGQPPKLLIYSASTLASGVPSRFKGSGSGTQFTLTISDLESDDAATYYCQGEFSCSSVDCATFGGGTEVVVKSGLEVLFQGPGSGLNDIFEAQKIEWHEHHHHHH
notes: SPR: biotinylated on the C-terminal tag and coupled to streptavidin; Crystals: tags cleaved off with 3C protease; also called OX116 Ab fragment
Kd [37]: 329 nM | Kd [38]: 529 nM | Kd [39]: 483 nM | Kd [40]: 1520 nM
